# Earlier results, collected in US20220023273A1, “METHODS FOR TREATING SYMPTOMS AND DISORDERS ASSOCIATED WITH LYSOSOMAL STORAGE DISEASES” (GENZYME CORPORATION, priority 2019, published 2022).
# B1: agalsidase beta: semisynthetic enzyme agalsidase beta (alpha-galactosidase), enzyme replacement therapy for Fabry disease (protein, UniProt P06280 32-429, looked up)
# Alpha-galactosidase A: LDNGLARTPTMGWLHWERFMCNLDCQEEPDSCISEKLFMEMAELMVSEGWKDAGYEYLCIDDCWMAPQRDSEGRLQADPQRFPHGIRQLANYVHSKGLKLGIYADVGNKTCAGFPGSFGYYDIDAQTFADWGVDLLKFDGCYCDSLENLADGYKHMSLALNRTGRSIVYSCEWPLYMWPFQKPNYTEIRQYCNHWRNFADIDDSWKSIKSILDWTSFNQERIVDVAGPGGWNDPDMLVIGNFGLSWNQQVTQMALWAIMAAPLFMSNDLRHISPQAKALLQDKDVIAINQDPLGKQGYQLRQGDNFEVWERPLSGLAWAVAMINRQEIGGPRSYTIAVASLGKGVACNPACFITQLLPVKRKLGFYEWTSRLRSHINPTGTVLLQLENTMQMSLKDLL
# Test system: plasma GL-3
# Settings: after 156 weeks; matched historical phase 3 trial patients treated with agalsidase beta; cited from earlier work
molecule,measurement,value
B1,Plasma GL-3 levels,4.44 µg/mL
